± gives the standard deviation of the averaged measurements.
Assay: total protein half-life in vivo (active degradation + dilution); higher = more stable protein
[1] = E. coli NCM3722 delta-clpP delta-lon delta-hslV, growth: N-lim chemostat, doubling time 6 h
[2] = E. coli NCM3722 delta-hslV, growth: N-lim chemostat, doubling time 6 h
[3] = E. coli NCM3722 delta-smpB, growth: N-lim chemostat, doubling time 6 h
[4] = wild type E. coli NCM3722, growth: C-lim chemostat, doubling time 3 h
[5] = wild type E. coli NCM3722, growth: C-lim chemostat, doubling time 6 h
[6] = wild type E. coli NCM3722, growth: C-lim chemostat, doubling time 12 h
[7] = wild type E. coli NCM3722, growth: N-lim chemostat, doubling time 6 h
[8] = wild type E. coli NCM3722, growth: N-lim chemostat, doubling time 12 h
[9] = wild type E. coli NCM3722, growth: P-lim chemostat, doubling time 6 h
[10] = wild type E. coli NCM3722, growth: P-lim chemostat, doubling time 12 h
[11] = E. coli NCM3722 delta-clpP, growth: N-lim chemostat, doubling time 6 h
[12] = E. coli NCM3722 delta-lon, growth: N-lim chemostat, doubling time 6 h

Sequence | total protein half-life in vivo [1] [h] | total protein half-life in vivo [2] [h] | total protein half-life in vivo [3] [h] | total protein half-life in vivo [4] [h] | total protein half-life in vivo [5] [h] | total protein half-life in vivo [6] [h] | total protein half-life in vivo [7] [h] | total protein half-life in vivo [8] [h] | total protein half-life in vivo [9] [h] | total protein half-life in vivo [10] [h] | total protein half-life in vivo [11] [h] | total protein half-life in vivo [12] [h]
MSNNEFHQRRLSATPRGVGVMCNFFAQSAENATLKDVEGNEYIDFAAGIAVLNTGHRHPDLVAAVEQQLQQFTHTAYQIVPYESYVTLAEKINALAPVSGQAKTAFFTTGAEAVENAVKIARAHTGRPGVIAFSGGFHGRTYMTMALTGKVAPYKIGFGPFPGSVYHVPYPSDLHGISTQDSLDAIERLFKSDIEAKQVAAIIFEPVQGEGGFNVAPKELVAAIRRLCDEHGIVMIADEVQSGFARTGKLFAMDHYADKPDLMTMAKSLAGGMPLSGVVGNANIMDAPAPGGLGGTYAGNPLAVAAAHAVLNIIDKESLCERANQLGQRLKNTLIDAKESVPAIAAVRGLGSMIAVEFNDPQTGEPSAAIAQKIQQRALAQGLLLLTCGAYGNVIRFLYPLTIPDAQFDAAMKILQDALSD | 3.77 ± 0.53 | 1 | 0.902 ± 0.068 | 2.883 ± 0.027 | 2.81 ± 0.47 | 4.33 ± 0.44 | 1.25 | 1.67 | 3.46 ± 0.35 | 5.88 ± 0.5 | – | –
MSNNIRIEEDLLGTREVPADAYYGVHTLRAIENFYISNNKISDIPEFVRGMVMVKKAAAMANKELQTIPKSVANAIIAACDEVLNNGKCMDQFPVDVYQGGAGTSVNMNTNEVLANIGLELMGHQKGEYQYLNPNDHVNKCQSTNDAYPTGFRIAVYSSLIKLVDAINQLREGFERKAVEFQDILKMGRTQLQDAVPMTLGQEFRAFSILLKEEVKNIQRTAELLLEVNLGATAIGTGLNTPKEYSPLAVKKLAEVTGFPCVPAEDLIEATSDCGAYVMVHGALKRLAVKMSKICNDLRLLSSGPRAGLNEINLPELQAGSSIMPAKVNPVVPEVVNQVCFKVIGNDTTVTMAAEAGQLQLNVMEPVIGQAMFESVHILTNACYNLLEKCINGITANKEVCEGYVYNSIGIVTYLNPFIGHHNGDIVGKICAETGKSVREVVLERGLLTEAELDDIFSVQNLMHPAYKAKRYTDESEQ [P0AC38] | 5.54 ± 0.31 | 1.13 ± 0.052 | 1.68 ± 0.45 | 2.42 ± 0.11 | 4.284 ± 0.012 | 6.58 ± 0.62 | 3.1 ± 0.18 | 2.93 ± 0.087 | 4.79 ± 0.14 | 9.237 ± 0.036 | 5.5 ± 1.1 | 1.68 ± 0.16
MSNQEPATILLIDDHPMLRTGVKQLISMAPDITVVGEASNGEQGIELAESLDPDLILLDLNMPGMNGLETLDKLREKSLSGRIVVFSVSNHEEDVVTALKRGADGYLLKDMEPEDLLKALHQAAAGEMVLSEALTPVLAASLRANRATTERDVNQLTPRERDILKLIAQGLPNKMIARRLDITESTVKVHVKHMLKKMKLKSRVEAAVWVHQERIF [P0AF28] | 6.09 ± 2.1 | 4.05 ± 0.41 | 4.166 ± 0.011 | 3.06 ± 0.19 | 5.03 ± 0.15 | 10.1 ± 1.3 | 4.19 ± 0.087 | 7.26 ± 0.29 | 5.39 ± 0.99 | 9.74 ± 1.3 | 5.77 ± 2.1 | 4.81 ± 0.33
MSNQFGDTRIDDDLTLLSETLEEVLRSSGDPADQKYVELKARAEKALDDVKKRVSQASDSYYYRAKQAVYRADDYVHEKPWQGIGVGAAVGLVLGLLLARR [P0AEH5] | 6.419 ± 0.022 | 6.88 ± 0.34 | 5.64 ± 0.42 | – | 6.46 ± 0.78 | 10.1 ± 0.52 | 5.99 ± 0.7 | 14.8 ± 0.89 | 5.16 ± 1.5 | 12.6 ± 0.4 | – | > 8
MSNQGEYPEDNRVGKHEPHDLSLTRRDLIKVSAATAATAVVYPHSTLAASVPAATPAPEIMPLTLKVNGKTEQLEVDTRTTLLDTLRENLHLIGTKKGCDHGQCGACTVLVNGRRLNACLTLAVMHQGAEITTIEGLGSPDNLHPMQAAFIKHDGFQCGYCTSGQICSSVAVLKEIQDGIPSHVTVDLVSAPETTADEIRERMSGNICRCGAYANILAAIEDAAGEIKS | 2.91 ± 0.9 | – | – | – | – | – | – | – | – | – | – | 2.02
MSNRKYFGTDGIRGRVGDAPITPDFVLKLGWAAGKVLARHGSRKIIIGKDTRISGYMLESALEAGLAAAGLSALFTGPMPTPAVAYLTRTFRAEAGIVISASHNPFYDNGIKFFSIDGTKLPDAVEEAIEAEMEKEISCVDSAELGKASRIVDAAGRYIEFCKATFPNELSLSELKIVVDCANGATYHIAPNVLRELGANVIAIGCEPNGVNINAEVGATDVRALQARVLAEKADLGIAFDGDGDRVIMVDHEGNKVDGDQIMYIIAREGLRQGQLRGGAVGTLMSNMGLELALKQLGIPFARAKVGDRYVLEKMQEKGWRIGAENSGHVILLDKTTTGDGIVAGLQVLAAMARNHMSLHDLCSGMKMFPQILVNVRYTAGSGDPLEHESVKAVTAEVEAALGNRGRVLLRKSGTEPLIRVMVEGEDEAQVTEFAHRIADAVKAV | 6.02 ± 0.36 | 5.92 ± 0.21 | 5.71 ± 0.24 | 3.24 ± 0.19 | 6.27 ± 0.035 | 12.62 ± 0.093 | 6.08 ± 0.13 | 11.8 ± 0.54 | 6.24 ± 0.16 | 13.8 ± 0.27 | 6.03 ± 0.15 | 6.65 ± 0.13
MSNTDASGEKRVTGTSERREQIIQRLRQQGSVQVNDLSALYGVSTVTIRNDLAFLEKQGIAVRAYGGALICDSTTPSVEPSVEDKSALNTAMKRSVAKAAVELIQPGHRVILDSGTTTFEIARLMRKHTDVIAMTNGMNVANALLEAEGVELLMTGGHLRRQSQSFYGDQAEQSLQNYHFDMLFLGVDAIDLERGVSTHNEDEARLNRRMCEVAERIIVVTDSSKFNRSSLHKIIDTQRIDMIIVDEGIPADSLEGLRKAGVEVILVGE [P0ACK2] | – | 4.83 ± 0.21 | 5.04 ± 0.56 | 3.02 ± 0.15 | 5.31 ± 0.35 | 9.94 ± 0.52 | 4.89 ± 0.46 | 9.31 ± 0.91 | 5.05 ± 0.16 | 9.52 ± 1.1 | 6.24 ± 1 | 5.24 ± 0.27
